The record followed here is publication PMC6141617 (2018).

The labels stand for the following.
B2: 14-3-3β (purified alone) (natural protein)
chain: MTMDKSELVQKAKLAEQAERYDDMAAAMKAVTEQGHELSNEERNLLSVAYKNVVGARRSSWRVISSIEQKTERNEKKQQMGKEYREKIEAELQDICNDVLELLDKYLIPNATQPESKVFYLKMKGDYFRYLSEVASGDNKQTTVSNSQQAYQEAFEISKKEMQPTHPIRLGLALNFSVFYYEILNSPEKACSLAKTAFDEAIAELDTLNEESYKDSTLIMQLLRDNLTLWTSENQGDEG

The assay “14-3-3β (purified alone)” deals with B2. As to the kind of experiment: FP.
The target in a further assay is GFP-ExoS^419-453. As to the kind of experiment: FP.

B1: GFP-ExoS^233–419 (domain or fragment)
chain: ADKALADGLVKRFGADAEKYLGRQPGGIHSDAEVMALGLYTGIHYADLNRALRQGQELDAGQKLIDQGMSAAFEKSGQAEQVVKTFRGTRGGDAFNAVEEGKVGHDDGYLSTSLNPGVARSFGQGTISTVFGRSGIDVSGISNYKNEKEILYNKETDMRVLLSASDEQGVTRRVLEEAALGEQSGHS
A word on the Kd: it is the constant that tells how readily two partners part at equilibrium. For the molecule B1, the Kd in the assay with 14-3-3β (purified alone) is greater than 100 nM.

B2 gave an equilibrium dissociation constant (Kd) with GFP-ExoS^419-453 of roughly 370 nM.
